Laboratory results as given in patent US7022818 (Janssen / Centocor, dated 2006).

B3: NH2-terminally 6His-tagged recombinant rat persephin (ligand)
chain: HHHHHHALPGLCRLWSLTLPVAELGLGYASEEKIIFRYCAGSCPQEVRTQHSLVLARLRGQGRAHGRPCCQPTSYADVTFLDDHHHWQQLPQLSAAACGCGG
notes: Immobilised on a CM5 chip by amine coupling; Produced as described in Creedon et al., 1997; also called PSP; rat PSP
B5: rat GFRα-4 variant A-IgGFc fusion protein (Fc fusion)
chain: ASSTEGNRCVEAAEACTADEQCQQLRSEYVAQCLGRAGWRGPGSCVRSRCRRALRRFFARGPPALTHALLFCGCEGPACAERRRQTFAPACAFSGPQLAPPSCLKPLDRCERSRRCRPRLFAFQASCAPAPGSRDGCPEEGGPRCLRAYAGLVGTVVTPNYLDNVSARVAPWCGCEASGNRREECEAFRKLFTRNPCLDGAIQAFDSSQPSVLQDQWNPYQNAG
notes: also called rat GFRα-4-IgGFc; rat GFRα4-IgGFc; not shown: The 243-residue COOH-terminal human IgG1-Fc fusion domain from the vector Signal pIg plus (R&D Systems)

What was measured:
[1] = molecular target: T1, chicken GFRα-4-IgGFc fusion protein (chicken; human, UniProt P01857-1 99-330 = IgG part, limits assumed); assay: SPR (BIACORE 3000), ligand immobilised, GFRα-IgGFc in solution
T1 construct: domain: human IgG1-Fc fusion domain; also called chicken GFR-4-IgGFc
T1 sequence (P01857 other isoform, or with tags, fused parts or gaps limits assumed): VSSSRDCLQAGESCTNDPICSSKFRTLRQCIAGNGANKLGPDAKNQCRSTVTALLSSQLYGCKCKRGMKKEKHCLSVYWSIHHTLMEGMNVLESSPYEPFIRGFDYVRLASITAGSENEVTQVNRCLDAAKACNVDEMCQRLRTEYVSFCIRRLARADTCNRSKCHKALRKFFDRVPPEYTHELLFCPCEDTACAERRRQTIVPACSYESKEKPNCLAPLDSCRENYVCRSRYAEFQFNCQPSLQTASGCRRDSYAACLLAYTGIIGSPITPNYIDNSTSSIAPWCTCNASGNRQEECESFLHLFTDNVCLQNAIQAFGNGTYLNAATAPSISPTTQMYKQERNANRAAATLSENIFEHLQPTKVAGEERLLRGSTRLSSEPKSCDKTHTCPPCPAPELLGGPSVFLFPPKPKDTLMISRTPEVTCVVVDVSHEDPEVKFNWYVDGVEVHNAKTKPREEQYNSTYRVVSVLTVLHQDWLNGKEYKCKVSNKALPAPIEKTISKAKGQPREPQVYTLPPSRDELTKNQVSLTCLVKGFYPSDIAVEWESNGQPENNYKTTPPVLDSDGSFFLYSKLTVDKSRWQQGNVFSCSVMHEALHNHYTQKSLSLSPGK
Method: (§1) Bound protein was eluted with 0.1 M Na-citrate, pH 3.0 and collected into 1 M Tris buffer, pH 8.4 (dilution ratio 1:6). Protein concentration was estimated by absorbance at 280 nm using an extinction coefficient of 1.5. Surface plasmon resonance (SPR) U.S. Ser. No. 10/019,337, filed Dec. 19, 2001 experiments were performed at 25° C. using a BIACORE 3000 instrument (Biacore AB, Uppsala, Sweden). Sensor chip CM5, the amine coupling kit and buffers used were also obtained from Biacore AB. Recombinant PSP, NTN, EVN/ART and GDNF were used as immobilised ligands. Recombinant human GDNF was obtained from R&D Systems Europe Ltd. (Abingdon, UK). NH2-terminally 6His-tagged (SEQ ID NO: 48) recombinant human NTN, rat PSP and human EVN/ART were produced in *E. coli* as described previously (Creedon et al., 1997). The carboxylated matrix of a CM5 sensor chip was first activated with a 1:1 mixture of 400 mM N-ethyl-N'-(3-dimethylaminopropyl)-carbodiimide and 100 mM N-hydroxy-succinimide for 10 min. Recombinant neurotrophic factors were applied onto the activated surface in 10 mM sodium acetate buffer, pH 4.5 at a flow rate of 5 μl/min. Unreacted carboxyl groups were blocked with 1 M ethanolamine-HCl. For binding experiments, soluble GFRα-IgGFc fusion proteins were superfused using the kinject program at 30 μl/min. Concentrations of GFRα-IgGFc used in kinetic experiments were between 1 and 100 nM in Hepes buffered saline (150 mM NaCl, 3.5 mM EDTA sodium salt, 0.005% polysorbate 20, 10 mM Hepes, pH 7.4). The association of the GFRα receptors to the immobilised ligands was monitored for 3 min and the dissociation for 1 min, followed by regeneration with 10 mM glycine buffer. Dissociation was initiated by superfusion with Hepes buffered saline. To improve the quality of sensor data, double referencing was used (Myszka, 1999). Data were analyzed using a global analysis with the BIACORE evaluation software (version 3.0.1). Global analysis calculates the association rate (k_a) and dissociation rate (k_d) simultaneously and the apparent equilibrium dissociation constant (K_D) is then calculated as k_d/k_a. A simple 1:1 Langmuir model was used to fit the data. Specific binding to PSP could be detected with both rat and chicken GFRα-4-IgGFc fusion proteins.

[2] = molecular target: B5; assay: as above
Method: as §1

[3] = molecular target: T2, human GFRα-2-IgGFc fusion protein (human, UniProt O00451 20-431); assay: SPR (BIACORE 3000), NTN immobilised
T2 construct: range 20-431; not shown: 243 amino acid residue COOH-terminal human IgG1-Fc fusion domain from vector Signal pIg plus (R&D Systems); exact limits
T2 sequence (looked up): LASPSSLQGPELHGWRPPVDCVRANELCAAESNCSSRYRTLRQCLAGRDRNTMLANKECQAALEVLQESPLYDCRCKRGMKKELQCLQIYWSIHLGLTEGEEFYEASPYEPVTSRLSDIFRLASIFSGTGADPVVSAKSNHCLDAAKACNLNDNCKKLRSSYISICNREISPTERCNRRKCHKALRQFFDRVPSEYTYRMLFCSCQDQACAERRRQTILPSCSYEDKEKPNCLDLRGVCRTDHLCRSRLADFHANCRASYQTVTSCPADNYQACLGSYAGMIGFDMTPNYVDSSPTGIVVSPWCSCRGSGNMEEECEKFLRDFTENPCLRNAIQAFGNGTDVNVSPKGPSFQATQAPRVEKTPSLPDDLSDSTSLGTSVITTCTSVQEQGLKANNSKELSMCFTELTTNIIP
Method: GFRα-IgGFc fusion proteins were purified from the medium of permanently or transiently transfected CHO cells by protein A chromatography. Bound protein was eluted with 0.1 M Na-citrate, pH 3.0 and collected into 1 M Tris buffer, pH 8.4 (dilution ratio 1:6). Protein concentration was estimated by absorbance at 280 nm using an extinction coefficient of 1.5. Surface plasmon resonance (SPR) U.S. Ser. No. 10/019,337, filed Dec. 19, 2001 experiments were performed at 25° C. using a BIACORE 3000 instrument (Biacore AB, Uppsala, Sweden). Sensor chip CM5, the amine coupling kit and buffers used were also obtained from Biacore AB. Recombinant PSP, NTN, EVN/ART and GDNF were used as immobilised ligands. Recombinant human GDNF was obtained from R&D Systems Europe Ltd. (Abingdon, UK). NH2-terminally 6His-tagged (SEQ ID NO: 48) recombinant human NTN, rat PSP and human EVN/ART were produced in *E. coli* as described previously (Creedon et al., 1997). […] The association of the GFRα receptors to the immobilised ligands was monitored for 3 min and the dissociation for 1 min, followed by regeneration with 10 mM glycine buffer. […] Data were analyzed using a global analysis with the BIACORE evaluation software (version 3.0.1). Global analysis calculates the association rate (k_a) and dissociation rate (k_d) simultaneously and the apparent equilibrium dissociation constant (K_D) is then calculated as k_d/k_a. […]

[4] = molecular target: T1, chicken GFRα-4-IgGFc fusion protein; assay: SPR (BIACORE 3000), persephin immobilised, GFRα-4-IgGFc in solution, 1:1 Langmuir global fit, n=3
Method: as §1

[5] = molecular target: B5; assay: as above
Method: as §1

[6] = molecular target: B3; assay: SPR (BIACORE 3000), persephin immobilised
Method: Bound protein was eluted with 0.1 M Na-citrate, pH 3.0 and collected into 1 M Tris buffer, pH 8.4 (dilution ratio 1:6). Protein concentration was estimated by absorbance at 280 nm using an extinction coefficient of 1.5. Surface plasmon resonance (SPR) U.S. Ser. No. 10/019,337, filed Dec. 19, 2001 experiments were performed at 25° C. using a BIACORE 3000 instrument (Biacore AB, Uppsala, Sweden). Sensor chip CM5, the amine coupling kit and buffers used were also obtained from Biacore AB. Recombinant PSP, NTN, EVN/ART and GDNF were used as immobilised ligands. Recombinant human GDNF was obtained from R&D Systems Europe Ltd. (Abingdon, UK). NH2-terminally 6His-tagged (SEQ ID NO: 48) recombinant human NTN, rat PSP and human EVN/ART were produced in *E. coli* as described previously (Creedon et al., 1997). […] The association of the GFRα receptors to the immobilised ligands was monitored for 3 min and the dissociation for 1 min, followed by regeneration with 10 mM glycine buffer. […] Data were analyzed using a global analysis with the BIACORE evaluation software (version 3.0.1). Global analysis calculates the association rate (k_a) and dissociation rate (k_d) simultaneously and the apparent equilibrium dissociation constant (K_D) is then calculated as k_d/k_a. […] Specific binding to PSP could be detected with both rat and chicken GFRα-4-IgGFc fusion proteins.

B1: recombinant human GDNF (ligand, UniProt P39905 78-211, looked up)
chain: SPDKQMAVLPRRERNRQAAAANPENSRGKGRRGQRGKNRGCVLTAIHLNVTDLGLGYETKEELIFRYCSGSCDAAETTYDKILKNLSRNRRLVSDKVGQACCRPIAFDDDLSFLDDNLVYHILRKHSAKRCGCI
notes: Immobilised on a CM5 chip by amine coupling; also called glial cell-line derived neurotrophic factor
**Q.** Does B1 bind [1]?
**A.** no binding

**Q.** Does B1 bind [2]?
**A.** no binding

B2: NH2-terminally 6His-tagged recombinant human neurturin (ligand)
chain: HHHHHHARLGARPCGLRELEVRVSELGLGYASDETVLFRYCAGACEAAARVYDLGLRRLRQRRRLRRERVRAQPCCRPTAYEDEVSFLDAHSRYHTVHELSARECACV
notes: Immobilised on a CM5 chip by amine coupling; also called NTN
**Q.** Does B2 bind [1]?
**A.** no binding

**Q.** Does B2 bind [2]?
**A.** no binding

**Q.** Does B2 bind [3]?
**A.** binds

**Q.** For B3, which Kd [4] is on record?
**A.** 5.4 nM

**Q.** What about the koff [4] of the same binder?
**A.** 0.00088 s⁻¹

**Q.** What about the kon [4] of the same binder?
**A.** ~230000 M⁻¹ s⁻¹

**Q.** And the Kd [5]?
**A.** 5.9 nM

**Q.** And the koff [5]?
**A.** 0.0012 s⁻¹

**Q.** What about the kon [5] of the same binder?
**A.** ~270000 M⁻¹ s⁻¹

B4: NH2-terminally 6His-tagged recombinant human enovin/artemin (ligand)
chain: HHHHHHAGGPGSRARAAGARGCRLRSQLVPVRALGLGHRSDELVRFRFCSGSCRRARSPHDLSLASLLGAGALRPPPGSRPVSQPCCRPTRYEAVSFMDVNSTWRTVDRLSATACGCLG
notes: Immobilised on a CM5 chip by amine coupling; also called EVN/ART; EVN/ARTN
**Q.** Does B4 bind [1]?
**A.** no binding

**Q.** Does B4 bind [2]?
**A.** no binding

**Q.** With B5 as the binder, how does the “fold lower binding level than chicken GFRα-4-IgGFc” value [6] read?
**A.** ~20 fold
